According to patent US20140057284A1, “PHOTOLUMINESCENT MOLECULAR COMPLEX AND METHOD FOR DETERMINING OF THE CONCENTRATION OF SAID MOLECULAR COMPLEX” (priority 2011, published 2014):

Key:
JNK1 = JNK1 (Homo sapiens, UniProt P45983); test: biochemical; settings: read-out: Percentages of residual activities of the kinase reaction
Method: (§1) Selectivity testing (Table 2) was performed on the commercial basis at the Division of Signal Transduction Therapy, University of Dundee. ATP concentrations that were used in testing were close to the Km value of the kinase.

PAK2 = PAK2 (Homo sapiens, UniProt Q13177); test: biochemical; settings: read-out: Percentages of residual activities of the kinase reaction
Method: as §1

HIPK3 = HIPK3 (Homo sapiens, UniProt Q9H422); test: biochemical; settings: read-out: Percentages of residual activities of the kinase reaction
Method: as §1

p38b MAPK = p38b MAPK (Homo sapiens, UniProt Q15759); test: biochemical; settings: read-out: Percentages of residual activities of the kinase reaction
Method: as §1

p38d MAPK = p38d MAPK (Homo sapiens, UniProt O15264); test: biochemical; settings: read-out: Percentages of residual activities of the kinase reaction
Method: as §1

LKB1 = LKB1 (Homo sapiens, UniProt Q15831); test: biochemical; settings: read-out: Percentages of residual activities of the kinase reaction
Method: as §1

MAPKAP-K3 = MAPKAP-K3 (Homo sapiens, UniProt Q16644); test: biochemical; settings: read-out: Percentages of residual activities of the kinase reaction
Method: as §1

SRPK1 = SRPK1 (Homo sapiens, UniProt Q96SB4); test: biochemical; settings: read-out: Percentages of residual activities of the kinase reaction
Method: as §1

PIM2 = PIM2 (Homo sapiens, UniProt Q9P1W9); test: biochemical; settings: read-out: Percentages of residual activities of the kinase reaction
Method: as §1

MST2 = MST2 (Homo sapiens, UniProt Q13188); test: biochemical; settings: read-out: Percentages of residual activities of the kinase reaction
Method: as §1

MKK6 = MKK6 (Homo sapiens, UniProt P52564); test: biochemical; settings: read-out: Percentages of residual activities of the kinase reaction
Method: as §1

PAK6 = PAK6 (Homo sapiens, UniProt Q9NQU5); test: biochemical; settings: read-out: Percentages of residual activities of the kinase reaction
Method: as §1

SGK1 = SGK1 (Homo sapiens, UniProt O00141); test: biochemical; settings: read-out: Percentages of residual activities of the kinase reaction
Method: as §1

JNK3 = JNK3 (Homo sapiens, UniProt P53779); test: biochemical; settings: read-out: Percentages of residual activities of the kinase reaction
Method: as §1

Aurora B = Aurora B (Homo sapiens, UniProt Q96GD4); test: biochemical; settings: read-out: Percentages of residual activities of the kinase reaction
Method: as §1

PKBa = PKBa (Homo sapiens, UniProt P31749); test: biochemical; settings: read-out: Percentages of residual activities of the kinase reaction
Method: as §1

RIPK2 = RIPK2 (Homo sapiens, UniProt O43353); test: biochemical; settings: read-out: Percentages of residual activities of the kinase reaction
Method: as §1

VEG-FR = VEG-FR (Homo sapiens, UniProt P17948); test: biochemical; settings: read-out: Percentages of residual activities of the kinase reaction
Method: as §1

MARK1 = MARK1 (Homo sapiens, UniProt Q9P0L2); test: biochemical; settings: read-out: Percentages of residual activities of the kinase reaction
Method: as §1

HIPK1 = HIPK1 (Homo sapiens, UniProt Q86Z02); test: biochemical; settings: read-out: Percentages of residual activities of the kinase reaction
Method: as §1

JAK2 = JAK2 (Homo sapiens, UniProt O60674); test: biochemical; settings: read-out: Percentages of residual activities of the kinase reaction
Method: as §1

Src = Src (Homo sapiens, UniProt P12931); test: biochemical; settings: read-out: Percentages of residual activities of the kinase reaction
Method: as §1

ERK2 = ERK2 (Homo sapiens, UniProt P28482); test: biochemical; settings: read-out: Percentages of residual activities of the kinase reaction
Method: as §1

DYRK1A = DYRK1A (Homo sapiens, UniProt Q13627); test: biochemical; settings: read-out: Percentages of residual activities of the kinase reaction
Method: as §1

ERK8 = ERK8 (Homo sapiens, UniProt Q8TD08); test: biochemical; settings: read-out: Percentages of residual activities of the kinase reaction
Method: as §1

MNK1 = MNK1 (Homo sapiens, UniProt Q9BUB5); test: biochemical; settings: read-out: Percentages of residual activities of the kinase reaction
Method: as §1

p38g MAPK = p38g MAPK (Homo sapiens, UniProt P53778); test: biochemical; settings: read-out: Percentages of residual activities of the kinase reaction
Method: as §1

PKA = PKA (Homo sapiens, UniProt P17612); test: biochemical; settings: read-out: Percentages of residual activities of the kinase reaction
Method: as §1

YES1 = YES1 (Homo sapiens, UniProt P07947); test: biochemical; settings: read-out: Percentages of residual activities of the kinase reaction
Method: as §1

MSK1 = MSK1 (Homo sapiens, UniProt O75582); test: biochemical; settings: read-out: Percentages of residual activities of the kinase reaction
Method: as §1

MLK3 = MLK3 (Homo sapiens, UniProt Q16584); test: biochemical; settings: read-out: Percentages of residual activities of the kinase reaction
Method: as §1

FGF-R1 = FGF-R1 (Homo sapiens, UniProt P11362); test: biochemical; settings: read-out: Percentages of residual activities of the kinase reaction
Method: as §1

PKD1 = PKD1 (Homo sapiens, UniProt Q15139); test: biochemical; settings: read-out: Percentages of residual activities of the kinase reaction
Method: as §1

CAMKKb = CAMKKb (Homo sapiens, UniProt Q96RR4); test: biochemical; settings: read-out: Percentages of residual activities of the kinase reaction
Method: as §1

[1] = biological target: catalytic subunit of cAMP-dependent protein kinase (PKAc) (Homo sapiens, UniProt P17612); test: Binding affinity to PKAc; settings: towards PKAc
CK2 = test: PK selectivity profiling, residual kinase activity; type: biochemical; settings: 1 μM ARC-669, ATP close to Km

Chain of PAK6 (Q9NQU5 whole entry, species assumed): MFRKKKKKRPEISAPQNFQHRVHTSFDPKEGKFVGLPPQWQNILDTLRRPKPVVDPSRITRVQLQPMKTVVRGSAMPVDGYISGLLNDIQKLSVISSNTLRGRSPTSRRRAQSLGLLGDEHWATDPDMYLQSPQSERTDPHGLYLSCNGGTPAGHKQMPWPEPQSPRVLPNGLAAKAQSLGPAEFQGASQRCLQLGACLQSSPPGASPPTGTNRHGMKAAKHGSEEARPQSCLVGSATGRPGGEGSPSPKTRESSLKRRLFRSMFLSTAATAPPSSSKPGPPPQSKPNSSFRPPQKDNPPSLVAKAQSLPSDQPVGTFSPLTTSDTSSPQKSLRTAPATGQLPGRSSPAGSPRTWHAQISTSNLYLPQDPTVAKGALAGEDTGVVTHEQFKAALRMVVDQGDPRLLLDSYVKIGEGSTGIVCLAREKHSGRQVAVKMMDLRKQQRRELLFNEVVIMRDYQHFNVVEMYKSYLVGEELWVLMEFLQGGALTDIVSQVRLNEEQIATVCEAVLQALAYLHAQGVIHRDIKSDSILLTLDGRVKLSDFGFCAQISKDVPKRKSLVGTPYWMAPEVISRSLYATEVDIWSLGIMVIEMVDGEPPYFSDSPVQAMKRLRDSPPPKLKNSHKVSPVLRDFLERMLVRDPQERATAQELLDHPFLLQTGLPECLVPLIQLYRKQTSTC
Chain of Aurora B (Q96GD4 whole entry): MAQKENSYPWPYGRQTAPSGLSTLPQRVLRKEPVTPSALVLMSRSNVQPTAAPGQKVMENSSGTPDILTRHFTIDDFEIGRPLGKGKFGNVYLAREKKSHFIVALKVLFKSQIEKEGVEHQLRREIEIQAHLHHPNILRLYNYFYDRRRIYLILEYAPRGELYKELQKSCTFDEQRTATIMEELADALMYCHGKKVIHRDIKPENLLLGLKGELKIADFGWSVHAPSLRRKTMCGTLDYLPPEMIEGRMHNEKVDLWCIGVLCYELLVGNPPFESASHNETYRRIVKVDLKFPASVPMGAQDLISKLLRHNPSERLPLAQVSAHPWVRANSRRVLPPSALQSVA
Chain of ERK8 (Q8TD08 whole entry, species assumed): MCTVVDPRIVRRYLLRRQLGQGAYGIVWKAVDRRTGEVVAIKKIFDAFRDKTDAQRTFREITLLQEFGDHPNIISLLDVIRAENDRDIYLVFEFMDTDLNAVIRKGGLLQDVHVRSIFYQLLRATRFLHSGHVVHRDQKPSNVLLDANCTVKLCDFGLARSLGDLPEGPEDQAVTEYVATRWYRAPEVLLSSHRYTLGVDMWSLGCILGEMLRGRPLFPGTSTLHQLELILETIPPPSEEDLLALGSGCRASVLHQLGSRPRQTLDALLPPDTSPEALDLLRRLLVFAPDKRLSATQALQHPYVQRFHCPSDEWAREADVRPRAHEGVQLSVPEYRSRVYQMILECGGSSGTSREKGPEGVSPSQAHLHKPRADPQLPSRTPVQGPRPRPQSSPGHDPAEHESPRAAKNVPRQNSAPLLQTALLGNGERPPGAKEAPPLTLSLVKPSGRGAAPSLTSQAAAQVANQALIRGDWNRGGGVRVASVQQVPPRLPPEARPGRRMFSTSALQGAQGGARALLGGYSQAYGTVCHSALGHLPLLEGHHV
Chain of PKBa (P31749 whole entry): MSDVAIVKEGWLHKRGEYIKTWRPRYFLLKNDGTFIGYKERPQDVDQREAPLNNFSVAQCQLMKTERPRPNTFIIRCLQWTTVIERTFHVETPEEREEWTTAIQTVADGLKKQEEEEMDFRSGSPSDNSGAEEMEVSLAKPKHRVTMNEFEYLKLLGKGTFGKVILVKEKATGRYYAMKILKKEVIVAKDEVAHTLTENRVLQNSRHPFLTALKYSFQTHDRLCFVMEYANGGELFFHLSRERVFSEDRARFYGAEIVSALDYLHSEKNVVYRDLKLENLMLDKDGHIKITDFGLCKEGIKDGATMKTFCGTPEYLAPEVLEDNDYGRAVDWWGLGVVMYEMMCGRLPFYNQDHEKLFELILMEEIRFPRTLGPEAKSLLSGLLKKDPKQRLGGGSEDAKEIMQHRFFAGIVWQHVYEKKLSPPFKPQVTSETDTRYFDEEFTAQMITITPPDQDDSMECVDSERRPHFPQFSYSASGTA
Chain of MAPKAP-K3 (Q16644 whole entry, species assumed): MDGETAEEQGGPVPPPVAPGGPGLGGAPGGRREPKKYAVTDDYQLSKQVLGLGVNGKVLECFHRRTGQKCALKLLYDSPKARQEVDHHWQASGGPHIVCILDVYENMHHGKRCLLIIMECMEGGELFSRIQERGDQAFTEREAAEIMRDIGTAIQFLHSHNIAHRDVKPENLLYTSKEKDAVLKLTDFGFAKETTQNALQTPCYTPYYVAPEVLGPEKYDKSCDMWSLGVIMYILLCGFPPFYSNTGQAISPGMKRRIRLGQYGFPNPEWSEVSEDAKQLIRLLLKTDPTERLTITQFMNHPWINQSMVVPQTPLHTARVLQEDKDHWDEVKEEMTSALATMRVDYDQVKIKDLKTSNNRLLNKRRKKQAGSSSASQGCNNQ
Chain of RIPK2 (O43353 whole entry, species assumed): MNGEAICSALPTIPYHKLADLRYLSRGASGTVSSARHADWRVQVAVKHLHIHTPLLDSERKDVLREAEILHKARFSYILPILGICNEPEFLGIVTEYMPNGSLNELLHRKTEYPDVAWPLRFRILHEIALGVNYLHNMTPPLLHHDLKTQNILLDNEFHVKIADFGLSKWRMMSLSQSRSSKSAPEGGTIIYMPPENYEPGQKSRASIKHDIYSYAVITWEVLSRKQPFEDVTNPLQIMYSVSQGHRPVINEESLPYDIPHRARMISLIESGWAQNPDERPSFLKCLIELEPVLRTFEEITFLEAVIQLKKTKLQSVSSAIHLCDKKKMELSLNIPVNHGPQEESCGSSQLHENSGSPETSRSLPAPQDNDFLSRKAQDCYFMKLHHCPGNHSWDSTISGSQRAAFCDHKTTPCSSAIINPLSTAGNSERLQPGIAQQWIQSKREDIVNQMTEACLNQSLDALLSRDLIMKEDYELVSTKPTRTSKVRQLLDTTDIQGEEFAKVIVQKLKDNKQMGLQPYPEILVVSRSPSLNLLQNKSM
Chain of PAK2 (Q13177 whole entry, species assumed): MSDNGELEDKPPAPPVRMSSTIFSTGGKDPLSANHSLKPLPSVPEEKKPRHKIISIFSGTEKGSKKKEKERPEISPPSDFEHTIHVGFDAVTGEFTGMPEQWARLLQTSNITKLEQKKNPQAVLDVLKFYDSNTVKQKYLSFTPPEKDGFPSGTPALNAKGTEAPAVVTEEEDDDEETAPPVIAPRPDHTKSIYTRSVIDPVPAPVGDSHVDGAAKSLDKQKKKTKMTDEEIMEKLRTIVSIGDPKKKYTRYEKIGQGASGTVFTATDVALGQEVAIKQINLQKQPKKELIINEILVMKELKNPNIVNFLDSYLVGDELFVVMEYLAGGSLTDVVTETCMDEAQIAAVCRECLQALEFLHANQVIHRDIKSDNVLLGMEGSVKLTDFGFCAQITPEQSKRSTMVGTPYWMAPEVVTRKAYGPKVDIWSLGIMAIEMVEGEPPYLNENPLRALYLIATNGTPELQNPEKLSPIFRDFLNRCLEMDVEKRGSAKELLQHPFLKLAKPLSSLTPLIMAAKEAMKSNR
Chain of VEG-FR (P17948 784-1338 limits assumed): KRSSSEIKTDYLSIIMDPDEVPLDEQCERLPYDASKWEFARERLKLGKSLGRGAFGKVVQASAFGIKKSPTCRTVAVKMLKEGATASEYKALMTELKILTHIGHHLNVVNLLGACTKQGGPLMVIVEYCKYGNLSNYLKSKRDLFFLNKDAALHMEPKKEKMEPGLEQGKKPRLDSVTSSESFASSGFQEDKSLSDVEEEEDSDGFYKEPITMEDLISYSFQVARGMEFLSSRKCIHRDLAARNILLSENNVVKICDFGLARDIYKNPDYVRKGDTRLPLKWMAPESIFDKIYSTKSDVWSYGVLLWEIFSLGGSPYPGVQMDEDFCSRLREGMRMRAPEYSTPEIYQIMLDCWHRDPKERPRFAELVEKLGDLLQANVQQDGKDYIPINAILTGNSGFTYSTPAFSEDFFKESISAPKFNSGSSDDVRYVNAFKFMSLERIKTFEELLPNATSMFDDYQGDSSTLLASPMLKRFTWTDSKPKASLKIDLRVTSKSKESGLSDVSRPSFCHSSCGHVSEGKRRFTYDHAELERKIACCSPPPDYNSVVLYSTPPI
Chain of ERK2 (P28482 whole entry, species assumed): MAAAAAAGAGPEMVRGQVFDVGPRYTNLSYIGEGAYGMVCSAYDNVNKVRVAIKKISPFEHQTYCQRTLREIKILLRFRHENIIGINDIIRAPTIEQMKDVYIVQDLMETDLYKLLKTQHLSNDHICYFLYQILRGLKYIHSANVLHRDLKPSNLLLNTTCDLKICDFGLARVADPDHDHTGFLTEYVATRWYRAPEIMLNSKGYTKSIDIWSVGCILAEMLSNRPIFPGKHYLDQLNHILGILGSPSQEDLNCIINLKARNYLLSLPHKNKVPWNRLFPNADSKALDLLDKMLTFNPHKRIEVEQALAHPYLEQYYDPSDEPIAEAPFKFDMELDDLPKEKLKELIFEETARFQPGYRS
Chain of Src (P12931 whole entry): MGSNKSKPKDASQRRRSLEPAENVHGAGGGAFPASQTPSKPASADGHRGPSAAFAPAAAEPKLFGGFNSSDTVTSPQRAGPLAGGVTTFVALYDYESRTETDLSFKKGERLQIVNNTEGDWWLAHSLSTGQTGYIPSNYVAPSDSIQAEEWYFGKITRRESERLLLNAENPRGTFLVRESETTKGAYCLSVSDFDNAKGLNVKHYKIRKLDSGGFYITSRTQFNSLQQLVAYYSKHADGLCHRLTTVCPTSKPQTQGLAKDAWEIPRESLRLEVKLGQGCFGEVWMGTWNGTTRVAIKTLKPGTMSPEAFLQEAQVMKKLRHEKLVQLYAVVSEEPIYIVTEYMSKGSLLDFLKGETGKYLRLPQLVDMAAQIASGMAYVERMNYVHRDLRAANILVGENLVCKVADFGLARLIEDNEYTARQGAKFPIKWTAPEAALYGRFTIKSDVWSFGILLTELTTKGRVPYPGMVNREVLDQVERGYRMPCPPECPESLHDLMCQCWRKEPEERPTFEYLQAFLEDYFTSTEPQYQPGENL

**Q.** For CN(C)c1ccc2c(c1)Oc1cc(N(C)C)ccc1C21OC(=O)c2cc(C(=O)NCCCC[C@@H](NC(=O)[C@@H](CCCNC(=N)N)NC(=O)[C@@H](CCCNC(=N)N)NC(=O)[C@@H](CCCNC(=N)N)NC(=O)[C@@H](CCCNC(=N)N)NC(=O)[C@@H](CCCNC(=N)N)NC(=O)[C@@H](CCCNC(=N)N)NC(=O)CCCCCNC(=O)[C@@H](CCCNC(=N)N)NC(=O)CCCCCNC(=O)c3ccc(-c4ccnc(N)n4)s3)C(N)=O)ccc21 [ARC-669], which remaining activity at 1 µM (JNK1) is on record?
**A.** The remaining activity at 1 µM was 91%.

**Q.** And the remaining activity at 1 µM (PAK2)?
**A.** The remaining activity at 1 µM was 43%.

**Q.** And the remaining activity at 1 µM (HIPK3)?
**A.** The remaining activity at 1 µM was 97%.

**Q.** What about the remaining activity at 1 µM (p38b MAPK) of the same molecule?
**A.** The remaining activity at 1 µM was 71%.

**Q.** What about the remaining activity at 1 µM (p38d MAPK) of the same molecule?
**A.** Its remaining activity at 1 µM is 104%.

**Q.** And the remaining activity at 1 µM (LKB1)?
**A.** Its remaining activity at 1 µM is 101%.

**Q.** And the remaining activity at 1 µM (MAPKAP-K3)?
**A.** The remaining activity at 1 µM was 31%.

**Q.** And the remaining activity at 1 µM (SRPK1)?
**A.** The remaining activity at 1 µM was 66%.

**Q.** What about the remaining activity at 1 µM (PIM2) of the same molecule?
**A.** Its remaining activity at 1 µM is 15%.

**Q.** What about the remaining activity at 1 µM (MST2) of the same molecule?
**A.** Its remaining activity at 1 µM is 94%.

**Q.** What about the remaining activity at 1 µM (MKK6) of the same molecule?
**A.** Its remaining activity at 1 µM is 107%.

**Q.** What about the remaining activity at 1 µM (PAK6) of the same molecule?
**A.** The remaining activity at 1 µM was 35%.

**Q.** And the remaining activity at 1 µM (SGK1)?
**A.** Its remaining activity at 1 µM is 8%.

**Q.** What about the remaining activity at 1 µM (JNK3) of the same molecule?
**A.** The remaining activity at 1 µM was 77%.

**Q.** What about the remaining activity at 1 µM (Aurora B) of the same molecule?
**A.** The remaining activity at 1 µM was 81%.

**Q.** What about the remaining activity at 1 µM (PKBa) of the same molecule?
**A.** Its remaining activity at 1 µM is 1%.

**Q.** What about the remaining activity at 1 µM (RIPK2) of the same molecule?
**A.** The remaining activity at 1 µM was 47%.

**Q.** And the remaining activity at 1 µM (VEG-FR)?
**A.** The remaining activity at 1 µM was 25%.

**Q.** What about the remaining activity at 1 µM (MARK1) of the same molecule?
**A.** The remaining activity at 1 µM was 65%.

**Q.** What about the remaining activity at 1 µM (HIPK1) of the same molecule?
**A.** Its remaining activity at 1 µM is 94%.

**Q.** What about the remaining activity at 1 µM (JAK2) of the same molecule?
**A.** Its remaining activity at 1 µM is 80%.

**Q.** What about the remaining activity at 1 µM (Src) of the same molecule?
**A.** Its remaining activity at 1 µM is 106%.

**Q.** What about the remaining activity at 1 µM (ERK2) of the same molecule?
**A.** The remaining activity at 1 µM was 80%.

**Q.** And the remaining activity at 1 µM (DYRK1A)?
**A.** The remaining activity at 1 µM was 27%.

**Q.** What about the remaining activity at 1 µM (ERK8) of the same molecule?
**A.** The remaining activity at 1 µM was 23%.

**Q.** And the remaining activity at 1 µM (MNK1)?
**A.** The remaining activity at 1 µM was 74%.

**Q.** What about the remaining activity at 1 µM (p38g MAPK) of the same molecule?
**A.** The remaining activity at 1 µM was 104%.

**Q.** And the remaining activity at 1 µM (PKA)?
**A.** The remaining activity at 1 µM was 1%.

**Q.** What about the remaining activity at 1 µM (YES1) of the same molecule?
**A.** Its remaining activity at 1 µM is 64%.

**Q.** What about the remaining activity at 1 µM (MSK1) of the same molecule?
**A.** Its remaining activity at 1 µM is 3%.

**Q.** What about the remaining activity at 1 µM (MLK3) of the same molecule?
**A.** The remaining activity at 1 µM was 70%.

**Q.** And the remaining activity at 1 µM (FGF-R1)?
**A.** Its remaining activity at 1 µM is 54%.

**Q.** What about the remaining activity at 1 µM (PKD1) of the same molecule?
**A.** The remaining activity at 1 µM was 37%.

**Q.** What about the remaining activity at 1 µM (CAMKKb) of the same molecule?
**A.** The remaining activity at 1 µM was 41%.

**Q.** And the Kd [1]?
**A.** Its Kd is 0.1 nM.

**Q.** And the “Percentages of residual activities of the kinase reaction” value (CK2)?
**A.** Its value is 7%.
